The text below walks through data of US20210063414A1, “METHODS FOR PREVENTING AND/OR TREATING BONE LOSS CONDITIONS BY MODULATING IRISIN” (Dana-Farber Cancer Institute, Inc., priority 2018, published 2021).

Experiment [1] has as its target T1, MLO-Y4 cell surface proteins (Mus musculus, UniProt G3X9C2).
T1 construct: endogenous in cells; host or cells: MLO-Y4
T1 sequence (G3X9C2 1-266): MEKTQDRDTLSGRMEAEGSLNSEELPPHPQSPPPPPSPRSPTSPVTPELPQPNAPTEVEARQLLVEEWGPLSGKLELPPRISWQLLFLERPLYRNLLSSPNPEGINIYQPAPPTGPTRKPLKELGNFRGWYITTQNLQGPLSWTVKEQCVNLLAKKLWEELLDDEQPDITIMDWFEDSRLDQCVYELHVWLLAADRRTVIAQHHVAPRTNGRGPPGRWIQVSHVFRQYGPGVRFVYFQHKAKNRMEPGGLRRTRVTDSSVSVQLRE
Description: Crosslinking/co-immunoprecipitation/mass spectrometry (TMT quantitative proteomics) to identify irisin receptors. The class given is binding. The conditions noted are these: co-precipitated protein Nccrp1 (FBX50_MOUSE). A digest of the protocol:
(§1)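 Mouse MLO-Y4 cells were switched to serum-free FreeStyle medium for 4 h, chilled, then exposed to 10 nM His-tagged irisin (or adipsin as control) for 20 min. Cells were crosslinked with 1.5 mM DTSSP (30 min, ice), and bound proteins were pulled down on Ni-NTA and eluted with 250 mM imidazole. Eluates were separated by SDS-PAGE, trypsin-digested in gel, TMT 6-plex labelled and quantified by MS3-based LC-MS/MS on an Orbitrap Fusion Lumos.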

Experiment [2] has as its target T2, MLO-Y4 cell surface proteins (Mus musculus, UniProt P55292).
T2 construct: endogenous in cells; host or cells: MLO-Y4
T2 sequence (P55292 136-902): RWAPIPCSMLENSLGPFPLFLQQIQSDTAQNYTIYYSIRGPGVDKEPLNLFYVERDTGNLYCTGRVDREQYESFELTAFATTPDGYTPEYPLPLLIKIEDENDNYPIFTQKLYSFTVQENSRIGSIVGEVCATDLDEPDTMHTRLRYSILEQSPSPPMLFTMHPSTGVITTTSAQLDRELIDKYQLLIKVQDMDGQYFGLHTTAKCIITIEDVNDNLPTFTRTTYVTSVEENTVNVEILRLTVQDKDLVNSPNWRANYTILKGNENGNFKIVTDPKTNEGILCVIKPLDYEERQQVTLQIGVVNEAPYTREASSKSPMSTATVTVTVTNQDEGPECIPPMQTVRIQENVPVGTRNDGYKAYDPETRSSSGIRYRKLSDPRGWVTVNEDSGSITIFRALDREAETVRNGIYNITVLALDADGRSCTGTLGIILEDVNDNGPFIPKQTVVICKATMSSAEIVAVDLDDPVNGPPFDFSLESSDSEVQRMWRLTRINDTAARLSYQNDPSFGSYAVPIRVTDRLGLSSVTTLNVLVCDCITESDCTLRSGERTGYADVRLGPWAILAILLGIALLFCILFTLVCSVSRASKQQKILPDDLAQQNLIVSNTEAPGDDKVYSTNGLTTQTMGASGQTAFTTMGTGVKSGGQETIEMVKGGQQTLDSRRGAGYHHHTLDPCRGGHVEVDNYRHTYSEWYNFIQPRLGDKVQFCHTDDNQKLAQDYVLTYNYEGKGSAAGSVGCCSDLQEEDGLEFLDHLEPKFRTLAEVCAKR
The description is as above. The conditions noted are these: co-precipitated protein Dsc2 (DSC2_MOUSE). The class given is binding. The essentials:
as §1

For adipsin, the TMT signal-to-noise ratio in experiment [1] worked out at 113.564; in experiment [2] it was 93.7977.
